Assay results reported in patent US20110091994A1, “Methods for Screening Compounds for Treating and/or Preventing an Hepatitis C Virus Infection” (priority 2008, published 2011).

B1: GOLGA2 (protein, UniProt Q08379 1-1002, looked up)
Golgin subfamily A member 2: MWPQPRLPPRPAMSEETRQSKLAAAKKKLREYQQRNSPGVPTGAKKKKKIKNGSNPETTTSGGCHSPEDTPKDNAATLQPSDDTVLPGGVPSPGASLTSMAASQNHDADNVPNLMDETKTFSSTESLRQLSQQLNGLVCESATCVNGEGPASSANLKDLESRYQQLAVALDSSYVTNKQLNITIEKLKQQNQEITDQLEEEKKECHQKQGALREQLQVHIQTIGILVSEKAELQTALAHTQHAARQKEGESEDLASRLQYSRRRVGELERALSAVSTQQKKADRYNKELTKERDALRLELYKNTQSNEDLKQEKSELEEKLRVLVTEKAGMQLNLEELQKKLEMTELLLQQFSSRCEAPDANQQLQQAMEERAQLEAHLGQVMESVRQLQMERDKYAENLKGESAMWRQRMQQMSEQVHTLREEKECSMSRVQELETSLAELRNQMAEPPPPEPPAGPSEVEQQLQAEAEHLRKELEGLAGQLQAQVQDNEGLSRLNREQEERLLELERAAELWGEQAEARRQILETMQNDRTTISRALSQNRELKEQLAELQSGFVKLTNENMEITSALQSEQHVKRELGKKLGELQEKLSELKETVELKSQEAQSLQQQRDQYLGHLQQYVAAYQQLTSEKEVLHNQLLLQTQLVDQLQQQEAQGKAVAEMARQELQETQERLEAATQQNQQLRAQLSLMAHPGEGDGLDREEEEDEEEEEEEAVAVPQPMPSIPEDLESREAMVAFFNSAVASAEEEQARLRGQLKEQRVRCRRLAHLLASAQKEPEAAAPAPGTGGDSVCGETHRALQGAMEKLQSRFMELMQEKADLKERVEELEHRCIQLSGETDTIGEYIALYQSQRAVLKERHREKEEYISRLAQDKEEMKVKLLELQELVLRLVGDRNEWHGRFLAAAQNPADEPTSGAPAPQELGAANQQGDLCEVSLAGSVEPAQGEAREGSPRDNPTAQQIMQLLREMQNPRERPGLGSNPCIPFFYRADENDEVKITVI
B2: GPS2 (protein, UniProt Q13227 1-327, looked up)
G protein pathway suppressor 2: MPALLERPKLSNAMARALHRHIMMERERKRQEEEEVDKMMEQKMKEEQERRKKKEMEERMSLEETKEQILKLEEKLLALQEEKHQLFLQLKKVLHEEEKRRRKEQSDLTTLTSAAYQQSLTVHTGTHLLSMQGSPGGHNRPGTLMAADRAKQMFGPQVLTTRHYVGSAAAFAGTPEHGQFQGSPGGAYGTAQPPPHYGPTQPAYSPSQQLRAPSAFPAVQYLSQPQPQPYAVHGHFQPTQTGFLQPGGALSLQKQMEHANQQTGFSDSSSLRPMHPQALHPAPGLLASPQLPVQMQPAGKSGFAATSQPGPRLPFIQHSQNPRFYHK
B3: ITGAL (protein, UniProt P20701 26-1170, looked up)
Integrin alpha-L: YNLDVRGARSFSPPRAGRHFGYRVLQVGNGVIVGAPGEGNSTGSLYQCQSGTGHCLPVTLRGSNYTSKYLGMTLATDPTDGSILACDPGLSRTCDQNTYLSGLCYLFRQNLQGPMLQGRPGFQECIKGNVDLVFLFDGSMSLQPDEFQKILDFMKDVMKKLSNTSYQFAAVQFSTSYKTEFDFSDYVKRKDPDALLKHVKHMLLLTNTFGAINYVATEVFREELGARPDATKVLIIITDGEATDSGNIDAAKDIIRYIIGIGKHFQTKESQETLHKFASKPASEFVKILDTFEKLKDLFTELQKKIYVIEGTSKQDLTSFNMELSSSGISADLSRGHAVVGAVGAKDWAGGFLDLKADLQDDTFIGNEPLTPEVRAGYLGYTVTWLPSRQKTSLLASGAPRYQHMGRVLLFQEPQGGGHWSQVQTIHGTQIGSYFGGELCGVDVDQDGETELLLIGAPLFYGEQRGGRVFIYQRRQLGFEEVSELQGDPGYPLGRFGEAITALTDINGDGLVDVAVGAPLEEQGAVYIFNGRHGGLSPQPSQRIEGTQVLSGIQWFGRSIHGVKDLEGDGLADVAVGAESQMIVLSSRPVVDMVTLMSFSPAEIPVHEVECSYSTSNKMKEGVNITICFQIKSLIPQFQGRLVANLTYTLQLDGHRTRRRGLFPGGRHELRRNIAVTTSMSCTDFSFHFPVCVQDLISPINVSLNFSLWEEEGTPRDQRAQGKDIPPILRPSLHSETWEIPFEKNCGEDKKCEANLRVSFSPARSRALRLTAFASLSVELSLSNLEEDAYWVQLDLHFPPGLSFRKVEMLKPHSQIPVSCEELPEESRLLSRALSCNVSSPIFKAGHSVALQMMFNTLVNSSWGDSVELHANVTCNNEDSDLLEDNSATTIIPILYPINILIQDQEDSTLYVSFTPKGPKIHQVKHMYQVRIQPSIHDHNIPTLEAVVGVPQPPSEGPITHQWSVQMEPPVPCHYEDLERLPDAAEPCLPGALFRCPVVFRQEILVQVIGTLELVGEIEASSMFSLCSSLSISFNSSKHFHLYGSNASLAQVVMKVDVVYEKQMLYLYVLSGIGGLLLLLLIFIVLYKVGFFKRNLKEKMEAGRGVPNGIPAEDSEQLASGQEAGDPGCLKPLHEKDSESGGGKD
B4: MOBK1B (protein, UniProt Q7L9L4 2-216, looked up)
MOB kinase activator 1B: SFLFGSRSSKTFKPKKNIPEGSHQYELLKHAEATLGSGNLRMAVMLPEGEDLNEWVAVNTVDFFNQINMLYGTITDFCTEESCPVMSAGPKYEYHWADGTNIKKPIKCSAPKYIDYLMTWVQDQLDDETLFPSKIGVPFPKNFMSVAKTILKRLFRVYAHIYHQHFDPVIQLQEEAHLNTSFKHFIFFVQEFNLIDRRELAPLQELIEKLTSKDR
B5: SORBS2 (protein, UniProt O94875 1-1100, looked up)
Sorbin and SH3 …: MSYYQRPFSPSAYSLPASLNSSIVMQHGTSLDSTDTYPQHAQSLDGTTSSSIPLYRSSEEEKRVTVIKAPHYPGIGPVDESGIPTAIRTTVDRPKDWYKTMFKQIHMVHKPDDDTDMYNTPYTYNAGLYNPPYSAQSHPAAKTQTYRPLSKSHSDNSPNAFKDASSPVPPPHVPPPVPPLRPRDRSSTEKHDWDPPDRKVDTRKFRSEPRSIFEYEPGKSSILQHERPASLYQSSIDRSLERPMSSASMASDFRKRRKSEPAVGPPRGLGDQSASRTSPGRVDLPGSSTTLTKSFTSSSPSSPSRAKGGDDSKICPSLCSYSGLNGNPSSELDYCSTYRQHLDVPRDSPRAISFKNGWQMARQNAEIWSSTEETVSPKIKSRSCDDLLNDDCDSFPDPKVKSESMGSLLCEEDSKESCPMAWGSPYVPEVRSNGRSRIRHRSARNAPGFLKMYKKMHRINRKDLMNSEVICSVKSRILQYESEQQHKDLLRAWSQCSTEEVPRDMVPTRISEFEKLIQKSKSMPNLGDDMLSPVTLEPPQNGLCPKRRFSIEYLLEEENQSGPPARGRRGCQSNALVPIHIEVTSDEQPRAHVEFSDSDQDGVVSDHSDYIHLEGSSFCSESDFDHFSFTSSESFYGSSHHHHHHHHHHHRHLISSCKGRCPASYTRFTTMLKHERARHENTEEPRRQEMDPGLSKLAFLVSPVPFRRKKNSAPKKQTEKAKCKASVFEALDSALKDICDQIKAEKKRGSLPDNSILHRLISELLPDVPERNSSLRALRRSPLHQPLHPLPPDGAIHCPPYQNDCGRMPRSASFQDVDTANSSCHHQDRGGALQDRESPRSYSSTLTDMGRSAPRERRGTPEKEKLPAKAVYDFKAQTSKELSFKKGDTVYILRKIDQNWYEGEHHGRVGIFPISYVEKLTPPEKAQPARPPPPAQPGEIGEAIAKYNFNADTNVELSLRKGDRVILLKRVDQNWYEGKIPGTNRQGIFPVSYVEVVKKNTKGAEDYPDPPIPHSYSSDRIHSLSSNKPQRPVFTHENIQGGGEPFQALYNYTPRNEDELELRESDVIDVMEKCDDGWFVGTSRRTKFFGTFPGNYVKRL

molecular target: T1, HCV ORFs (Gal4-DB fusions) (Hepatitis C virus genotype 1b, UniProt Q9WMX2); assay: not given; type: binding, HCV genotype 1b, isolate con1; settings: HCV protein NS5A as bait; human protein as prey
T1 construct: expressed in transfected cells; host or cells: Saccharomyces cerevisiae MAV203 (IMAP1) / AH109 (IMAP2)
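For IMAP Y2H IMAP2 (number of IST) in this document: yeast two-hybrid screens using HCV genotype 1b proteins fused to Gal4-DB as baits against prey cDNA libraries from human spleen and foetal brain, IMAP1 via transformation and IMAP2 via mating.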
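For Interaction with viral protein in this document: yeast two-hybrid screens using HCV genotype 1b proteins fused to Gal4-DB as baits against prey cDNA libraries from human spleen and foetal brain, IMAP1 via transformation and IMAP2 via mating.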

Molecule | IMAP Y2H IMAP2 (number of IST)
B1 | 15
B2 | 1
B3 | 1
B4 | 5
B5 | 8

same assay, conditions: HCV protein NS5B as bait; human protein as prey

Molecule | IMAP Y2H IMAP2 (number of IST)
B4 | 3

system: HCV ORFs (Gal4-DB fusions); assay: not given; type: binding, HCV genotype 1b, isolate con1; settings: human protein listed by gene symbol; the value names the HCV protein it interacts with

Molecule | Interaction with viral protein
B1 | NS5A
B2 | NS5A
B3 | NS5A
B4 | NS5A
B5 | NS5A

molecular target: T2, GST-tagged viral proteins (Hepatitis C virus genotype 1b, UniProt Q9WMX2); assay: Validation by co-affinity purification (CoAP); type: binding, HCV genotype 1b, isolate con1; design: key: +: IMAP validation; −: not validated; NA: non assayable due to default of protein expression or to cellular protein directly interacting with GST; settings: interaction with HCV protein NS5A
T2 construct: expressed in transfected cells; host or cells: HEK-293T
T2 sequence (Q9WMX2 1973-2419): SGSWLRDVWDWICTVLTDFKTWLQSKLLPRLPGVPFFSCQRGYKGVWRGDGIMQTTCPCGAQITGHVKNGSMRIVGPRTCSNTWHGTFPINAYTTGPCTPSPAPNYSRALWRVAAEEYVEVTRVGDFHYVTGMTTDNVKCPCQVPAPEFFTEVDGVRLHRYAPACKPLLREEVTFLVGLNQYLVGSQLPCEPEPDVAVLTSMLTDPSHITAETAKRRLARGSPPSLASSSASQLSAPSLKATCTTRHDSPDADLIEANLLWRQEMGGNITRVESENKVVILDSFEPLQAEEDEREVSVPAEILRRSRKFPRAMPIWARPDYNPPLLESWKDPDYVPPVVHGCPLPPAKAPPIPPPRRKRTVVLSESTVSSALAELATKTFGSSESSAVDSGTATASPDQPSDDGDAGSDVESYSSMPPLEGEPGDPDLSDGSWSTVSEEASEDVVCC
Text: C. Validation of Y2H interactions by co-affinity purification assay. Nine co-AP positive assays are shown, representing: NS5A-SORBS2 (1), NS3-CALCOCO2 (2), NS5A-BIN1 (3), NS5A-MOBK1B (4), NS5A-EFEMP1 (5), NS3-PSMB9 and NS5A-PSMB9 (6), NS5A-PPPIRI3L (7), NS3-RASAL2 (8). After pull-down with GST tagged viral baits (+) or with negative control GST alone (−), cellular preys are identified with anti-Flag antibody. Anti-GST antibody identifies either GST alone or GST-tagged viral baits. Expression of cellular preys in cell lysate is controlled by anti-Flag (bottom panel). […]
A random pool of 59 IMAP Y2H interactions was chosen for CoAP assays. Cellular ORFs (interacting domains found in Y2H screens) were cloned by recombinational cloning from a pool of human cDNA library or the MGC cDNA plasmids using KOD polymerase (Toyobo) into pDONR207 (Invitrogen). After validation by sequencing, these ORFs were transferred to pCi-neo-3xFLAG gateway-converted, and HCV ORFs were transferred into pDEST27 (GST fusion in N-term). HEK-293T cells were then co-transfected (JetPei, Polyplus) by each pair of plasmid encoding interacting proteins. Controls are GST alone against 3xFLAG-tagged preys. Two days after transfection, cells were harvested and lysed (0.5% NP-40, 20 mM Tris-HCl (pH 8.0), 180 mM NaCl, 1 mM EDTA, and complete protease inhibitor cocktail). Cell lysates were cleared by centrifugation for 20 min at 13,000 rpm at 4° C. and soluble protein complexes were purified using Glutathione Sepharose 4B beads (GE Healthcare). Beads were then washed extensively four times with lysis buffer and proteins were separated on SDS-PAGE and transferred to nitrocellulose membrane. GST-tagged viral proteins and 3xFLAG-tagged cellular proteins were detected using standard immunoblotting techniques using anti-GST (Covance) and anti-FLAG M2 (Sigma) monoclonal antibodies (21).

Molecule | CoAP
B1 | +
B2 | +
B3 | +
B4 | +
B5 | +
